Data reported in patent US20220372142A1 (IGM BIOSCIENCES, published 2022).
Where a chain is given by its changes, count along the chain named. In names and notes the source's numbering stands.

B1: RTX-IgM V15J (wt) (bispecific antibody)
VH: QVQLQQPGAELVKPGASVKMSCKASGYTFTSYNMHWVKQTPGRGLEWIGAIYPGNGDTSYNQKFKGKATLTADKSSSTAYMQLSSLTSEDSAVYYCARSTYYGGDWYFNVWGAGTTVTVSA
VL: QIVLSQSPAILSASPGEKVTMTCRASSSVSYIHWFQQKPGSSPKPWIYATSNLASGVPVRFSGSGSGTSYSLTISRVEAEDAATYYCQQWTSNPPTFGGGTKLEIKR
chain: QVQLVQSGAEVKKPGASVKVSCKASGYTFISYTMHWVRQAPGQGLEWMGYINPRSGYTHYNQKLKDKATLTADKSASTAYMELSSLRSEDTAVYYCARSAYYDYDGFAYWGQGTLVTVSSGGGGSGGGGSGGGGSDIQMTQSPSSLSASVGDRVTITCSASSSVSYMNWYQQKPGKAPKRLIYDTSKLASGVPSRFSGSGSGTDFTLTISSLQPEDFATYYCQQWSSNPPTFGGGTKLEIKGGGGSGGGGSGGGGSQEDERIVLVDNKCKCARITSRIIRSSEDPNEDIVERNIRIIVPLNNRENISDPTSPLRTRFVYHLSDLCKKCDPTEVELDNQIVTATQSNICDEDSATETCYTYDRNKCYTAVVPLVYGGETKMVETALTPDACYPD
B2: RTX-IgM V15J (N93E) (bispecific antibody)
VH: B1 VH
VL: B1 VL with N93E
chain: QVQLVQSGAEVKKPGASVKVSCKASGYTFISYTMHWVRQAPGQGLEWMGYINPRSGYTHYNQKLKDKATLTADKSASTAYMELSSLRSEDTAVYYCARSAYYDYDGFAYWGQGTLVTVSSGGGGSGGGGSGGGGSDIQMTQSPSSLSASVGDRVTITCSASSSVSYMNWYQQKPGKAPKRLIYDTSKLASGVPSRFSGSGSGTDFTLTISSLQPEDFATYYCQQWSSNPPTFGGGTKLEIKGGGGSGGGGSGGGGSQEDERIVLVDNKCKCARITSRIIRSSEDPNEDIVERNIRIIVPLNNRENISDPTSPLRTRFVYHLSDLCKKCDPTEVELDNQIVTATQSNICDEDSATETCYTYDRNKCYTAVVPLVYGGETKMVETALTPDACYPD
B3: RTX-IgM V15J (N93D) (bispecific antibody)
VH: B1 VH
VL: B1 VL with N93D
chain: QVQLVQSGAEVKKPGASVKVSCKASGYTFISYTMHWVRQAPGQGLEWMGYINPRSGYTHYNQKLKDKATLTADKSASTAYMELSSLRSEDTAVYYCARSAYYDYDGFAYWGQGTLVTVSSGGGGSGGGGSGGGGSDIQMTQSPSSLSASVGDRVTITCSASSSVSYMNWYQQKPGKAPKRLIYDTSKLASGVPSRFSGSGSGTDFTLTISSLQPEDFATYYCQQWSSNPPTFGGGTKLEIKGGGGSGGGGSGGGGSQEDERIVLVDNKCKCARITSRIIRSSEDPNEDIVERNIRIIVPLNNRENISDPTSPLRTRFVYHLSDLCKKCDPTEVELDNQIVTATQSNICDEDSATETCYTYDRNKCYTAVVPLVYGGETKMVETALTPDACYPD
B4: RTX-IgM + J N93A (antibody)
VH: B1 VH
VL: B1 VL with N93A
chain: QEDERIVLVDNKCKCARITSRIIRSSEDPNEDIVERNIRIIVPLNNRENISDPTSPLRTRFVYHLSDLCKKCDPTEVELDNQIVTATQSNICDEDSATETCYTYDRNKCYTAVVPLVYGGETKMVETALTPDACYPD
notes: Pentameric IgM with wild-type J-chain; IgM constant region of the construct not specified
B5: RTX-IgM + J N93K (antibody)
VH: B1 VH
VL: B1 VL with N93K
chain: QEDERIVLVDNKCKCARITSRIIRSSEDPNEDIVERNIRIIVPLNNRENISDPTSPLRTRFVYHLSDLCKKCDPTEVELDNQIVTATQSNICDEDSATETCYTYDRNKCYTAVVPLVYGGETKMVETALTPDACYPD
notes: as for B4
B6: RTX-IgM + J N93R (antibody)
VH: B1 VH
VL: B1 VL with N93R
chain: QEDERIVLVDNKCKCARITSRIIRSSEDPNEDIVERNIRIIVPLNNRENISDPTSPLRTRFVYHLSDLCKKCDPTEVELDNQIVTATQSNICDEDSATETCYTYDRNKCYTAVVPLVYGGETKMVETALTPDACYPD
notes: as for B4

Legend:
CD20 [1] = target: T1, CD20 (UniProt P11836 1-297, limits assumed); test: cell-based or functional assay
T1 sequence (looked up): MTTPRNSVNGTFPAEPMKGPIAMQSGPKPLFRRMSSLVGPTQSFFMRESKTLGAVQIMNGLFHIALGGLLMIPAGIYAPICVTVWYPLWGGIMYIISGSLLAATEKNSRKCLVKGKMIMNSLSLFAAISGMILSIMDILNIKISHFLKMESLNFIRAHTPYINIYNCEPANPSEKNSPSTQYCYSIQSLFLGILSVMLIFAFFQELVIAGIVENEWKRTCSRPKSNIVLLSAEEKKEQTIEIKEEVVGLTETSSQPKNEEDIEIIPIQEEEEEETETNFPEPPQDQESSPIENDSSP

CD20 [2] = target: T1, CD20; test: flow cytometry on Ramos cells, anti-human kappa AF647 detection
Protocol: The cells were split every 2-3 days as necessary to maintain the cell density between 0.2-2.0×10⁶ cells/mL. […] The antibody cell mixtures were incubated for 30 minutes on ice in the dark. […] Fluorescent staining data was acquired on FACSCalibur using standard settings and analyzed with FloJo 10. Mean fluorescent intensity (MFI) values were imported into GraphPad Prism, and EC50 or KD values were calculated from the resulting curve fit.

| Binder | TDCC on CA46 cells with CD8+ T cells, EC50 (CD20 [1]) [nM] | TDCC on Ramos cells with CD8+ T cells, % Max. (CD20 [1]) [%] | TDCC on Ramos cells with CD8+ T cells, EC50 (CD20 [1]) [nM] | TDCC on normal B cells with CD8+ T cells, EC50 (CD20 [1]) [nM] | EC50 (CD20 [2]) [nM] |
| --- | --- | --- | --- | --- | --- |
| B1 | 0.014 | 98 | 0.009 | 0.009 | – |
| B2 | – | 80 | 0.107 | 0.145 | – |
| B3 | – | 60 | 0.722 | – | – |
| B4 | – | – | – | – | 0.69 |
| B5 | – | – | – | – | 0.88 |
| B6 | – | – | – | – | 0.52 |
